Results on one molecule are retold here after paper PMC2958364 (Journal of molecular biology, 2008).

In experiment [1] the target is αvβ6 integrin on A375Pβ6 cells (Homo sapiens (A375P alpha-V, human …, UniProt P06756;P18564)). Briefly: flow cytometry on cells.
Experiment [2] concerns the target αvβ6 integrin, purified from CHO αvβ6 cells (Homo sapiens (assumed), recombinant …, UniProt P06756;P18564). Briefly: ELISA.
In experiment [3] the target is αvβ3 integrin, immobilized (Homo sapiens (assumed), UniProt P06756;P05106). The experiment can be described thus: ELISA.
Sequence of αvβ3 integrin, immobilized (P06756 31-1048, chain 1 of 2): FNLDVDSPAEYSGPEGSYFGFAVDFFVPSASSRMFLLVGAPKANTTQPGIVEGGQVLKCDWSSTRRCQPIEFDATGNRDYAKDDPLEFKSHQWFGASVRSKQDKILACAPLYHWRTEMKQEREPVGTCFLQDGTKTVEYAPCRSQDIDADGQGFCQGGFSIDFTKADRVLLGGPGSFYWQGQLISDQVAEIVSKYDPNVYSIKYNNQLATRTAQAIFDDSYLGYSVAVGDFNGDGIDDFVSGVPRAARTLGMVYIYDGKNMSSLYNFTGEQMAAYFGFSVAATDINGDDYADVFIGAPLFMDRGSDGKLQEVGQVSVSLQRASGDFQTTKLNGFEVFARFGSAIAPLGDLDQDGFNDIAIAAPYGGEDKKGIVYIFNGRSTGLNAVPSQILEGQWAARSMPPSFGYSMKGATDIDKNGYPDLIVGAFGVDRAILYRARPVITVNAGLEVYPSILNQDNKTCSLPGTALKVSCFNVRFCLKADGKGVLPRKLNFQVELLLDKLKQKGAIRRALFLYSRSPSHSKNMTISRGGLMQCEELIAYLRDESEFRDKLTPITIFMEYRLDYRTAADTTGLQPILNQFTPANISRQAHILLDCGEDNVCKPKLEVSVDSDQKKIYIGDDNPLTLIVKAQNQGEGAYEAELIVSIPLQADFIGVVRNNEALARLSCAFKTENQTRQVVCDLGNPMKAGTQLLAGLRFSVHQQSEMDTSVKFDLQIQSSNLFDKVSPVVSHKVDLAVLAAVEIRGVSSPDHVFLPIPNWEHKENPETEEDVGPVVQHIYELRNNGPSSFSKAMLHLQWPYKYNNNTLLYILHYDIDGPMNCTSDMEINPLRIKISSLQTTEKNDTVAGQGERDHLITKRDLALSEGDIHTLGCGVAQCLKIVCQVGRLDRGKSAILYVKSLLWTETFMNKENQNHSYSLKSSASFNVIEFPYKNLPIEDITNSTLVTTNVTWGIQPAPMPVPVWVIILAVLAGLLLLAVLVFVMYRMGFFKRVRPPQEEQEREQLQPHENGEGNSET
Sequence of αvβ3 integrin, immobilized (P05106 27-718, chain 2 of 2): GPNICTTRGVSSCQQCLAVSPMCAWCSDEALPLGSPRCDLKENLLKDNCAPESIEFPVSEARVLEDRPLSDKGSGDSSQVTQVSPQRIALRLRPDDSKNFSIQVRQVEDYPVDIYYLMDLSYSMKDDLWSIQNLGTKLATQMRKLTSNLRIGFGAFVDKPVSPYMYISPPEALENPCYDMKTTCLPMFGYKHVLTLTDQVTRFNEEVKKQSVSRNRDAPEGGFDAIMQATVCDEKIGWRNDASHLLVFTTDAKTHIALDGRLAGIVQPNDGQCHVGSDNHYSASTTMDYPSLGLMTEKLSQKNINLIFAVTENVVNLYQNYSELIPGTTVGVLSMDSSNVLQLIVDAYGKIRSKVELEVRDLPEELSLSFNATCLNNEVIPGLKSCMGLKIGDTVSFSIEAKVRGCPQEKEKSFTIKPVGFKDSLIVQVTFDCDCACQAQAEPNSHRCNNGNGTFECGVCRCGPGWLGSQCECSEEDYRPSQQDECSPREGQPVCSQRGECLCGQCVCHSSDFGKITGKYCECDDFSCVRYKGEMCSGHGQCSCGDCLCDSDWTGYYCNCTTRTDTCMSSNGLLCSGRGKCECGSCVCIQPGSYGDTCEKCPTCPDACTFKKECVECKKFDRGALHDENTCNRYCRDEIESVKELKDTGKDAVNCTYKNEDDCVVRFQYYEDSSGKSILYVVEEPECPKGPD

Sequence of αvβ6 integrin on A375Pβ6 cells (Homo sapiens (P06756 31-1048, stated change not applied, chain 1 of 2): as the sequence (P06756 31-1048, chain 1 of 2) above
Sequence of αvβ6 integrin on A375Pβ6 cells (Homo sapiens (P18564 22-788, chain 2 of 2): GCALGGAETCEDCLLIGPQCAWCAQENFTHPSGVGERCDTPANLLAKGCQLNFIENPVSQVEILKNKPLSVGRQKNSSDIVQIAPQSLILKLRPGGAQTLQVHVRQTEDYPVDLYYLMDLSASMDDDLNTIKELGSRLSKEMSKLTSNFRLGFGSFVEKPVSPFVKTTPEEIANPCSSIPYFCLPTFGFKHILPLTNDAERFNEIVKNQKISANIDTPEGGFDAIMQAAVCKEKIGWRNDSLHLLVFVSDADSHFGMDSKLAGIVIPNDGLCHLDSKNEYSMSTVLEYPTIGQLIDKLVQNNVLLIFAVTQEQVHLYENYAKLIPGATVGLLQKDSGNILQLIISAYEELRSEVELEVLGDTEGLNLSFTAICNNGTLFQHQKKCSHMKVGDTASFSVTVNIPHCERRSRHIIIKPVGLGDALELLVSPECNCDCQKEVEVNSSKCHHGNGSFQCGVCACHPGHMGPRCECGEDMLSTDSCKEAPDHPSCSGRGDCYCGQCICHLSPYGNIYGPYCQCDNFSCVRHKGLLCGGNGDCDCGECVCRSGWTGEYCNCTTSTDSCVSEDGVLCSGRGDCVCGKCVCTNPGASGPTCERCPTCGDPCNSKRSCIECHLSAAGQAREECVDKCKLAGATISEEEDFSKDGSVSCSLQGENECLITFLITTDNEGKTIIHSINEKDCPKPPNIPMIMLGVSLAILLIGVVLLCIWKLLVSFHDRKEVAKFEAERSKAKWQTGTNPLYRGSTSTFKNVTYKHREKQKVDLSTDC
Sequence of αvβ6 integrin, purified from CHO αvβ6 cells (P06756 31-1048, chain 1 of 2): as the sequence (P06756 31-1048, chain 1 of 2) above
Sequence of αvβ6 integrin, purified from CHO αvβ6 cells (P18564 22-788, chain 2 of 2): as the sequence (P18564 22-788, chain 2 of 2) above

B1: MFE-23 (scFv, V domains shown)
VH: QVKLQQSGAELVRSGTSVKLSCTASGFNIKDSYMHWLRQGPEQGLEWIGWIDPENGDTEYAPKFQGKATFTTDTSSNTAYLQLSSLTSEDTAVYYCNEGTPTGPYYFDYWGQGTTVTVSS
VL: ENVLTQSPAIMSASPGEKVTITCSASSSVSYMHWFQQKPGTSPKLWIYSTSNLASGVPARFSGSGSGTSYSLTISRMEAEDAATYYCQQRSSYPLTFGAGTKLELK
Turning to B1, the figures for the binding result in experiment [1], in experiment [2] and in experiment [3] were “no binding (tested: 50 μg/ml)”, “no binding (tested: 5 μg/ml)” and “no binding (tested: 5 μg/ml)”, respectively.
